The target of this assay is T1, HSPC300 (subunit of the WRC) (human, UniProt Q8WUW1 1-75).
T1 construct: HSPC300, human, full length; source: E. coli, purified within the WRC
T1 sequence (looked up): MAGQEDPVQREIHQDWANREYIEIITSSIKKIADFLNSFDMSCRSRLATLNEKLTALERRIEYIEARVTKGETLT
Kind of assay: cryo-EM structure; WRC^apo at 1.2 µM in 10 mM HEPES-KOH pH 7.0, 50 mM KCl, 1 mM MgCl2, 1 mM DTT, 5% (v/v) glycerol; 3.0 Å. Particulars: both partners purified.

B1: WAVE1(1-230)-(GGS)6-WCA(485-559) (subunit of the WRC) (domain or fragment, human)
chain: MPLVKRNIDPRHLCHTALPRGIKNELECVTNISLANIIRQLSSLSKYAEDIFGELFNEAHSFSFRVNSLQERVDRLSVSVTQLDPKEEELSLQDITMRKAFRSSTIQDQQLFDRKTLPIPLQETYDVCEQPPPLNILTPYRDDGKEGLKFYTNPSYFFDLWKEKMLQDTEDKRKEKRKQKQKNLDRPHEPEKVPRAPHDRRREWQKLAQGPELAEDDANLLHKHIEVANGGGSGGSGGSGGSGGSGGSKRHPSTLPVISDARSVLLEAIRKGIQLRKVEEQREQEAKHERIENDVATILSRRIAVEYSDSEDDSEFDEVDWLE
notes: WAVE1, human, residues 1-230; (GGS)6 linker, written out from the printed formula; WAVE1, human, WCA, residues 485-559; source: E. coli, purified within the WRC
Turning to B1, the binding result is “binds”.

The record behind these values is PMC9481577, “Structures reveal a key mechanism of WAVE regulatory complex activation by Rac1 GTPase” (Nature Communications, 2022).
